We go through six molecules from patent publication US20210179726A1 (DINGFU BIOTARGET, published 2021).

Test [1] has as its target T1, hCD27-muFc (human; mouse, UniProt P26842 20-192).
T1 construct: range 1-192; Secreted from HEK293, Protein A purified; not shown: mouse IgG1-Fc (muFc), residues 98 to 324 of UniProt P01868
T1 sequence (looked up): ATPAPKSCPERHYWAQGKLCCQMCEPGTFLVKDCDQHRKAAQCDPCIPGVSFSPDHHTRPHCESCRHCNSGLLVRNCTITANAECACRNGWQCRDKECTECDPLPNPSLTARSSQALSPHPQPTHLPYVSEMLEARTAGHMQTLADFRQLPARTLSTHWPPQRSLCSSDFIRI
The test can be described thus: BLI (Octet K2), antibody on Protein A biosensor, hCD27-muFc in solution. As for the experimental part: Using the BLI method, each humanized antibody was immobilized on a Protein A biosensor at a concentration of 10 μg/ml, while hCD27-muFc was subjected to 2-fold serial dilution, starting from 100 nM, to obtain 5 gradient dilutions for each antibody. The reaction plate was placed on the Octet K2 instrument. The parameters were set to Baseline 70 s, Association 80 s, Dissociation 300 s, Baseline 260 s, Loading 40 s, and Custom 5 s.
Background: Biolayer interferometry detects binding as a change in optical thickness at a sensor tip.

Test [2] addresses T1, hCD27-muFc. Description: ELISA, plate coated with hCD27-muFc, Test 1. As for the experimental part: The ELISA plate was coated with 2 μg/ml hCD27-muFc, 100 μl/well and incubated at 4° C. overnight. Then it was washed once with 10 mM, pH 7.4 PBS/Tween (0.05%), blocked with PBST containing 5% skimmed milk powder and incubated at 37° C. for 2 h. After washing the plate for 4 times, the humanized antibodies were added and incubated at 37° C. for 40 min, then it was washed for 4 times. Anti-human IgG-HRP-conjugated secondary antibody (Sigma, Cat #A0170-1M) was added and incubated at 37° C. for 40 min. After washing, the plate was developed with TMB substrate and spectrophotometric analysis was performed at OD₄₅₀. In FIGS. 5A-5B, each curve represents the binding result obtained for one of the humanized antibodies. From the results, it can be seen that all these humanized antibodies could bind to human CD27.
A general note: ELISA stands for enzyme-linked immunosorbent assay.

Test [3] has as its target T2, hCD27-EGFP on HEK293 cells (human, UniProt P26842 20-260).
T2 construct: EGFP fusion expressed on transfected HEK293 cells; also called CD27-EGFP cells; cell surface CD27
T2 sequence (looked up): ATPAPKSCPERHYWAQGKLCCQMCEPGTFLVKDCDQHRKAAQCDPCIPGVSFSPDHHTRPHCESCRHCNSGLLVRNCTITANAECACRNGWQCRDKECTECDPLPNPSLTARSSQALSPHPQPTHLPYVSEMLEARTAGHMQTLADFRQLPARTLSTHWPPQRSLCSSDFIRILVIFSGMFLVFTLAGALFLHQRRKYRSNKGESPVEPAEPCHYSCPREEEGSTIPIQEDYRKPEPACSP
The test can be described thus: FACS titration on CD27-EGFP HEK293 cells, 8 three-fold dilutions from 20 µg/ml, anti-human Ig-APC secondary, MFI; table drawn under the plot, unit from the x axis; no upper plateau reached. As for the experimental part:
Based on the above results of ELISA, 7 humanized antibodies were selected to examine their affinities to cell surface CD27. Briefly, 5×10⁵ CD27-EGFP cells prepared in Example 1 were washed twice in PBS, each of the humanized antibodies (d16647, d12996, d9419, 14822, 9424, d14822, d12674) was added. The antibodies were subjected to 3-fold serial dilution, starting from 20 μg/ml, to obtain 8 gradient dilutions for each antibody. The antibodies and the cells were incubated at 4° C. for 30 min. Then, it was washed twice with PBS, anti-human Ig-APC (Jackson ImmunoResearch Laboratories, Cat #109-135-098) was added, and incubated at 4° C. for 30 min, washed twice with PBS and resuspended in 300 μl PBS. Flow cytometry was then performed, and the results are shown in FIG. 6. m2F11 was used as a control.

B1: 12996 (antibody, human IgG1, V domains shown, not shown: a dimerising Fc or GST)
VH: EVHLQESGGGLVKPGGSLRLSCAASGFTFSSYAMSWVRQAPEKGLEWVAIIGDGDTYTYYPDSVKGRFTISRDNSKNRLYLQMNSLKSEDTAMYYCVRTRGGPFDYWGQGTTLTVSS
VL: EILLTQSPAFMSATPGEKVTITCSASSSVGSMHWYQQKSGQSPRRLIYDTSKLASGVPDRFSGSGSGTDYTLTISSLEAEDAATYYCQQWSSIPPTFGAGTTLELK
notes: Humanized m2F11, human IgG1 / kappa
What is called Kd is the equilibrium constant for the complex coming apart. Higher therefore signals a looser complex. As a reminder, the koff is the first-order rate constant of dissociation. One may read the kon as the rate constant with which the complex forms. In general, EC50 refers to the concentration at which the effect is half-maximal. Lower therefore signals a more potent agent. In the case of B1, in test [1], the Kd came out at 4.98 nM, the koff was determined as 0.000368 s⁻¹ and the kon is 73900 M⁻¹ s⁻¹. Also, the EC50 in test [2] was found to be 0.0506 mg/L.

B2: 9419 (antibody, human IgG1, V domains shown, not shown: a dimerising Fc or GST)
VH: EVHLQESGGALVKPGGSLRLSCAASGFTFSSYAMSWVRQAPEKGLEWVAIIGDGDTYTYYPDSVKGRFTISRDNAKNTLYLQMSNLKSEDTAMYYCVRTRGGPFDYWGQGTTLTVSS
VL: EILLTQSPAFMSATPGEKVTITCSASSSVGSMHWYQQKSGQSPRRLIYDTSKLASGVPDRFSGSGSGTDYTLTISSLEAEDAATYYCQQWSSIPPTFGAGTTLELK
notes: as for B1
B2: in test [1], binding was characterised by a dissociation constant (Kd) of 2.73 nM, the koff came to 0.000287 s⁻¹ and the kon is 105000 M⁻¹ s⁻¹. Besides, the response in test [2] was half-maximal at 0.0583 mg/L (EC50).

B3: d12996 (antibody, human IgG1, V domains shown, not shown: a dimerising Fc or GST)
VH: EVHLQESGGGLVKPGGSLRLSCAASGFTFSSYAMSWVRQEPEKNLEWVAIIGDGDTYTYYPDSVKGRFTISRDNSKNRLYLQMNDLKSEDTAMYYCVRTRGGPFDYWGQGTTLTVSS
VL: EILLTQSPAFMSATPGEKVTITCSASSSVGSMHWYQQKSGQSPRRLIYDTSKLASGVPDRFSGSGSGTDYTLTISSLEAEDAATYYCQQWSSIPPTFGAGTTLELK
notes: as for B1
In test [1], B3 returned an equilibrium dissociation constant (Kd) of 3.39 nM, a koff of 0.000326 s⁻¹ and an on-rate constant (kon) of 96200 M⁻¹ s⁻¹. The molecule further came in with a half-maximal effective concentration (EC50) in test [2] of 0.03 mg/L. In addition, in test [3], the LogEC50 was 0.562 Log10(ug/ml).

B4: 12674 (antibody, human IgG1, V domains shown, not shown: a dimerising Fc or GST)
VH: EVHLQESGGGLVKPGGSLRLSCAASGFTFSSYAMSWVRQAPGKGLEWVAIIGDGDTYTYYPDSVKGRFTISRDNSKNRLYLQMNSLKSEDTAMYYCVRTRGGPFDYWGQGTTLTVSS
VL: EILLTQSPAFMSATPGEKVTITCSASSSVGSMHWYQQKSGQSPRRLIYDTSKLASGVPDRFSGSGSGTDYTLTISSLEAEDAATYYCQQWSSIPPTFGAGTTLELK
notes: as for B1
For B4, in test [1], the Kd was determined as 3.66 nM, the koff worked out at 0.000291 s⁻¹ and the kon amounted to 79500 M⁻¹ s⁻¹. The molecule also gave an EC50 in test [2] of 0.0585 mg/L.

B5: 14822 (antibody, human IgG1, V domains shown, not shown: a dimerising Fc or GST)
VH: EVHLQESGGGLVKPGGSLRLSCAASGFTFSSYAMSWVRQMPGKGLEWVAIIGDGDTYTYYPDSVKGRFTISRDNSKNTLYLQMNSLKSEDTAMYYCVRTRGGPFDYWGQGTTLTVSS
VL: EILLTQSPAFMSATPGEKVTITCSASSSVGSMHWYQQKSGQSPRRLIYDTSKLASGVPDRFSGSGSGTDYTLTISSLEAEDAATYYCQQWSSIPPTFGAGTTLELK
notes: as for B1
In test [1], B5 returned a dissociation constant Kd of 5.15 nM, an off-rate (koff) of 0.000499 s⁻¹ and an on-rate constant (kon) of 97000 M⁻¹ s⁻¹. Besides, in test [2], the half-maximal effective concentration (EC50) amounted to 0.0427 mg/L. Also, in test [3], the LogEC50 is 0.62 Log10(ug/ml).

B6: d9419 (antibody, human IgG1, V domains shown, not shown: a dimerising Fc or GST)
VH: EVHLQESGGALVKPGGSLRLSCAASGFTFSSYAMSWVRQKPEKNLEWVAIIGDGDTYTYYPDSVKGRFTISRDNAKNTLYLQMSDLKSEDTAMYYCVRTRGGPFDYWGQGTTLTVSS
VL: EILLTQSPAFMSATPGEKVTITCSASSSVGSMHWYQQKSGQSPRRLIYDTSKLASGVPDRFSGSGSGTDYTLTISSLEAEDAATYYCQQWSSIPPTFGAGTTLELK
notes: as for B1
B6: in test [1], binding was put at a Kd of 1.7 nM, the koff is 0.000205 s⁻¹ and the kon was found to be 120000 M⁻¹ s⁻¹. The same molecule displayed a concentration giving a half-maximal response (EC50) in test [2] of 0.033 mg/L. In addition, the LogEC50 in test [3] was 0.564 Log10(ug/ml).
